From US20260167699A1 (Chugai, published 2026)

B1: GpH7-A5/GpH7-B3 variant A330_14T/GpL16-k0 (antibody, human IgG1, kappa)
heavy 1: not shown
heavy 2: not shown
light: DIVMTQSPLSLPVTPGEPASISCQASESLVHSNRNTYLHWYLQKPGQSPQLLIYKVSNRFSGVPDRFSGSGSGTDFTLKISRVEAEDVGVYYCSQNTHVPPTFGQGTKVEIERTVAAPSVFIFPPSDEQLKSGTASVVCLLNNFYPREAKVQWKVDNALQSGNSQESVTEQDSKDSTYSLSSTLTLSKADYEKHKVYACEVTHQGLSSPVTKSFNRGEC
notes: copies: 1 + 1 + 2
B2: GpH7-A5/GpH7-B3 variant A327_13S/GpL16-k0 (antibody, human IgG1, kappa)
heavy 1: not shown
heavy 2: not shown
light: B1 light
notes: copies: 1 + 1 + 2
B3: GpH7-A5/GpH7-B3 variant E269_02A/GpL16-k0 (antibody, human IgG1, kappa)
heavy 1: not shown
heavy 2: not shown
light: B1 light
notes: copies: 1 + 1 + 2
B4: GpH7-A5/GpH7-B3 variant E269_15Y/GpL16-k0 (antibody, human IgG1, kappa)
heavy 1: not shown
heavy 2: not shown
light: B1 light
notes: copies: 1 + 1 + 2
B5: GpH7-A5/GpH7-B3 variant D270_02A/GpL16-k0 (antibody, human IgG1, kappa)
heavy 1: not shown
heavy 2: not shown
light: B1 light
notes: copies: 1 + 1 + 2
B6: GpH7-A5/GpH7-B3 variant E269_08L/GpL16-k0 (antibody, human IgG1, kappa)
heavy 1: not shown
heavy 2: not shown
light: B1 light
notes: copies: 1 + 1 + 2
B7: GpH7-A5/GpH7-B3 variant D270_06M/GpL16-k0 (antibody, human IgG1, kappa)
heavy 1: not shown
heavy 2: not shown
light: B1 light
notes: copies: 1 + 1 + 2
B8: GpH7-A5/GpH7-B3 variant A327_05P/GpL16-k0 (antibody, human IgG1, kappa)
heavy 1: not shown
heavy 2: not shown
light: B1 light
notes: copies: 1 + 1 + 2
B9: GpH7-A5/GpH7-B3 variant A330_18N/GpL16-k0 (antibody, human IgG1, kappa)
heavy 1: not shown
heavy 2: not shown
light: B1 light
notes: copies: 1 + 1 + 2
B10: GpH7-A5/GpH7-B3 variant E269_13S/GpL16-k0 (antibody, human IgG1, kappa)
heavy 1: not shown
heavy 2: not shown
light: B1 light
notes: copies: 1 + 1 + 2
B11: GpH7-A5/GpH7-B3 variant E333_04F/GpL16-k0 (antibody, human IgG1, kappa)
heavy 1: not shown
heavy 2: not shown
light: B1 light
notes: copies: 1 + 1 + 2
B12: GpH7-A5/GpH7-B3 variant A330_16H/GpL16-k0 (antibody, human IgG1, kappa)
heavy 1: not shown
heavy 2: not shown
light: B1 light
notes: copies: 1 + 1 + 2
B13: GpH7-A5/GpH7-B3 variant D270_18N/GpL16-k0 (antibody, human IgG1, kappa)
heavy 1: not shown
heavy 2: not shown
light: B1 light
notes: copies: 1 + 1 + 2
B14: GpH7-A5/GpH7-B3 variant A327_18N/GpL16-k0 (antibody, human IgG1, kappa)
heavy 1: not shown
heavy 2: not shown
light: B1 light
notes: copies: 1 + 1 + 2
B15: GpH7-A5/GpH7-B3 variant A330_09D/GpL16-k0 (antibody, human IgG1, kappa)
heavy 1: not shown
heavy 2: not shown
light: B1 light
notes: copies: 1 + 1 + 2
B16: GpH7-A5/GpH7-B3 variant E269_06M/GpL16-k0 (antibody, human IgG1, kappa)
heavy 1: not shown
heavy 2: not shown
light: B1 light
notes: copies: 1 + 1 + 2
B17: GpH7-A5/GpH7-B3 variant D270_19Q/GpL16-k0 (antibody, human IgG1, kappa)
heavy 1: not shown
heavy 2: not shown
light: B1 light
notes: copies: 1 + 1 + 2
B18: GpH7-A5/GpH7-B3 variant E269_03V/GpL16-k0 (antibody, human IgG1, kappa)
heavy 1: not shown
heavy 2: not shown
light: B1 light
notes: copies: 1 + 1 + 2
B19: GpH7-A5/GpH7-B3 variant A330_15Y/GpL16-k0 (antibody, human IgG1, kappa)
heavy 1: not shown
heavy 2: not shown
light: B1 light
notes: copies: 1 + 1 + 2
B20: GpH7-A5/GpH7-B3 variant D270_10E/GpL16-k0 (antibody, human IgG1, kappa)
heavy 1: not shown
heavy 2: not shown
light: B1 light
notes: copies: 1 + 1 + 2
B21: GpH7-A5/GpH7-B3 variant A330_08L/GpL16-k0 (antibody, human IgG1, kappa)
heavy 1: not shown
heavy 2: not shown
light: B1 light
notes: copies: 1 + 1 + 2
B22: GpH7-A5/GpH7-B3 variant A330_10E/GpL16-k0 (antibody, human IgG1, kappa)
heavy 1: not shown
heavy 2: not shown
light: B1 light
notes: copies: 1 + 1 + 2
B23: GpH7-A5/GpH7-B3 variant E333_11K/GpL16-k0 (antibody, human IgG1, kappa)
heavy 1: not shown
heavy 2: not shown
light: B1 light
notes: copies: 1 + 1 + 2
B24: GpH7-A5/GpH7-B3 variant A330_06M/GpL16-k0 (antibody, human IgG1, kappa)
heavy 1: not shown
heavy 2: not shown
light: B1 light
notes: copies: 1 + 1 + 2
B25: GpH7-A5/GpH7-B3 variant E333_06M/GpL16-k0 (antibody, human IgG1, kappa)
heavy 1: not shown
heavy 2: not shown
light: B1 light
notes: copies: 1 + 1 + 2
B26: GpH7-A5/GpH7-B3 variant A330_20W/GpL16-k0 (antibody, human IgG1, kappa)
heavy 1: not shown
heavy 2: not shown
light: B1 light
notes: copies: 1 + 1 + 2
B27: GpH7-A5/GpH7-B3 variant A330_11K/GpL16-k0 (antibody, human IgG1, kappa)
heavy 1: not shown
heavy 2: not shown
light: B1 light
notes: copies: 1 + 1 + 2
B28: GpH7-A5/GpH7-B3 variant E269_16H/GpL16-k0 (antibody, human IgG1, kappa)
heavy 1: not shown
heavy 2: not shown
light: B1 light
notes: copies: 1 + 1 + 2
B29: GpH7-A5/GpH7-B3 variant A327_09D/GpL16-k0 (antibody, human IgG1, kappa)
heavy 1: not shown
heavy 2: not shown
light: B1 light
notes: copies: 1 + 1 + 2
B30: GpH7-A5/GpH7-B3 variant E269_09D/GpL16-k0 (antibody, human IgG1, kappa)
heavy 1: not shown
heavy 2: not shown
light: B1 light
notes: copies: 1 + 1 + 2
B31: GpH7-A5/GpH7-B3 variant D270_03V/GpL16-k0 (antibody, human IgG1, kappa)
heavy 1: not shown
heavy 2: not shown
light: B1 light
notes: copies: 1 + 1 + 2

These binders were tested against T1, FcγRIIIa (human, UniProt P08637 17-208) (assay: SPR (Biacore);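 also: antibody variants captured on an SPR sensor chip, with FcγRIIIa passed over as analyte in HBS-EP+ buffer at 25 °C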).
T1 construct: extracellular domain; also called 3a; FcγRIIIa extracellular domain
T1 sequence (P08637 other isoform, or with tags, fused parts or gaps): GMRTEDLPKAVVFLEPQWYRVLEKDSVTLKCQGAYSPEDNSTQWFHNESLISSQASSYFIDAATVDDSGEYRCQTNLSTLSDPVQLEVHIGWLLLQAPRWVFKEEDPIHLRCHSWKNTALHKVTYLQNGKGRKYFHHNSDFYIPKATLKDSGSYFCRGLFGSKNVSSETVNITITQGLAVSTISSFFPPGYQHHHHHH

| He/Con 3a | Binder |
| --- | --- |
| 85.8 % of GpH7-A5/GpH7-B3/GpL16-k0 | B1 |
| 66.7 % of GpH7-A5/GpH7-B3/GpL16-k0 | B2 |
| 68 % of GpH7-A5/GpH7-B3/GpL16-k0 | B3 |
| 51.5 % of GpH7-A5/GpH7-B3/GpL16-k0 | B4 |
| 50.5 % of GpH7-A5/GpH7-B3/GpL16-k0 | B5 |
| 51.5 % of GpH7-A5/GpH7-B3/GpL16-k0 | B6 |
| 60 % of GpH7-A5/GpH7-B3/GpL16-k0 | B7 |
| 61.9 % of GpH7-A5/GpH7-B3/GpL16-k0 | B8 |
| 67.3 % of GpH7-A5/GpH7-B3/GpL16-k0 | B9 |
| 62.1 % of GpH7-A5/GpH7-B3/GpL16-k0 | B10 |
| 104 % of GpH7-A5/GpH7-B3/GpL16-k0 | B11 |
| 102 % of GpH7-A5/GpH7-B3/GpL16-k0 | B12 |
| 51.2 % of GpH7-A5/GpH7-B3/GpL16-k0 | B13 |
| 62.8 % of GpH7-A5/GpH7-B3/GpL16-k0 | B14 |
| 56.4 % of GpH7-A5/GpH7-B3/GpL16-k0 | B15 |
| 57.9 % of GpH7-A5/GpH7-B3/GpL16-k0 | B16 |

| He/Con 3a | Binder |
| --- | --- |
| 74.2 % of GpH7-A5/GpH7-B3/GpL16-k0 | B17 |
| 56 % of GpH7-A5/GpH7-B3/GpL16-k0 | B18 |
| 122 % of GpH7-A5/GpH7-B3/GpL16-k0 | B19 |
| 112 % of GpH7-A5/GpH7-B3/GpL16-k0 | B20 |
| 122 % of GpH7-A5/GpH7-B3/GpL16-k0 | B21 |
| 82.8 % of GpH7-A5/GpH7-B3/GpL16-k0 | B22 |
| 97.7 % of GpH7-A5/GpH7-B3/GpL16-k0 | B23 |
| 139 % of GpH7-A5/GpH7-B3/GpL16-k0 | B24 |
| 100 % of GpH7-A5/GpH7-B3/GpL16-k0 | B25 |
| 102 % of GpH7-A5/GpH7-B3/GpL16-k0 | B26 |
| 91.8 % of GpH7-A5/GpH7-B3/GpL16-k0 | B27 |
| 50.7 % of GpH7-A5/GpH7-B3/GpL16-k0 | B28 |
| 86 % of GpH7-A5/GpH7-B3/GpL16-k0 | B29 |
| 106 % of GpH7-A5/GpH7-B3/GpL16-k0 | B30 |
| 54.6 % of GpH7-A5/GpH7-B3/GpL16-k0 | B31 |
